Measurements: IntAct's records for PubMed 30388101

B1: Paired immunoglobulin-like type 2 receptor alpha (Homo sapiens), Q9UKJ1 (parent)
chain: MGRPLLLPLLPLLLPPAFLQPSGSTGSGPSYLYGVTQPKHLSASMGGSVEIPFSFYYPWELATAPDVRISWRRGHFHRQSFYSTRPPSIHKDYVNRLFLNWTEGQKSGFLRISNLQKQDQSVYFCRVELDTRSSGRQQWQSIEGTKLSITQAVTTTTQRPSSMTTTWRLSSTTTTTGLRVTQGKRRSDSWHISLETAVGVAVAVTVLGIMILGLICLLRWRRRKGQQRTKATTPAREPFQNTEEPYENIRNEGQNTDPKLNPKDDGIVYASLALSSSTSPRAPPSHRPLKSPQNETLYSVLKA
B2: Paired immunoglobulin-like type 2 receptor alpha (Homo sapiens), Q9UKJ1 (parent)
chain: B1 chain
partner: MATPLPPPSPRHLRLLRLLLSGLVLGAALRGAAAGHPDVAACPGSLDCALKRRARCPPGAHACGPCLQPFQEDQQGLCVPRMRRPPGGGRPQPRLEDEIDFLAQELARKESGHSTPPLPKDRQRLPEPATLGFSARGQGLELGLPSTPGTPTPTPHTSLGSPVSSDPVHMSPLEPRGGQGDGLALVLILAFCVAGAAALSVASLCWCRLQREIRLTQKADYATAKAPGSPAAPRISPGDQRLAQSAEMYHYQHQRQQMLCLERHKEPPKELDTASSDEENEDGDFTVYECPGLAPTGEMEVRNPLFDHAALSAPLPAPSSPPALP
B3: Paired immunoglobulin-like type 2 receptor alpha (Homo sapiens), Q9UKJ1 (parent)
chain: B1 chain
partner: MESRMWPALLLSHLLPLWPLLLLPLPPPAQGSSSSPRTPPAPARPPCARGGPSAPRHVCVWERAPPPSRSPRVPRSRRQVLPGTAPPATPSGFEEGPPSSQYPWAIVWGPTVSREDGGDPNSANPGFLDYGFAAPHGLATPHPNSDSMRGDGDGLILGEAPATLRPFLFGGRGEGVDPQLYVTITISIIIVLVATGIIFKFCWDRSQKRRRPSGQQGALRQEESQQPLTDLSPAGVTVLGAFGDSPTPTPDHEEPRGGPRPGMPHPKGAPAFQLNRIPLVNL

Variants of: B1
Conditions: with co4a_human C4A

effect of a mutation on the interaction | Variant
increasing interaction strength | R78G
disrupting interaction strength | F76A
increasing interaction strength | S80G

Variants of: B2
Conditions: with npdc1_human NPDC1, Q9NQX5

effect of a mutation on the interaction | Variant
increasing interaction strength | R78G
increasing interaction strength | S141A

Continued, variant first:

Variant | effect of a mutation on the interaction
R72A | disrupting interaction strength
Q140A | disrupting interaction strength
S80G | increasing interaction strength
F76A | disrupting interaction strength

Variants of: B2
Conditions: with npdc1_human NPDC1, Q9NQX5
Remark: another data set of the same source

effect of a mutation on the interaction | Variant
decreasing interaction strength | Q140A

Variants of: B3
Conditions: with pianp_human PIANP

effect of a mutation on the interaction | Variant
increasing interaction strength | R78G
disrupting interaction strength | F76A

Continued, variant first:

Variant | effect of a mutation on the interaction
R72A | disrupting interaction strength
S80G | increasing interaction strength
